Laboratory results published in patent publication US20220064256A1 (published 2022).

T1: CD22 peptide on HLA-A*02:01 (human)
T1 peptide: FLSNDTVQL

T2: CD22 peptide on HLA-A*02:04 (human)
T2 peptide: FLSNDTVQL

T3: CD22 peptide on HLA-A*02:05 (human)
T3 peptide: FLSNDTVQL

T4: CD22 peptide on HLA-A*02:07 (human)
T4 peptide: FLSNDTVQL

T5: CD22 peptide on HLA-A*02:10 (human)
T5 peptide: FLSNDTVQL

T6: CD22 peptide on HLA-A*02:02 (human)
T6 peptide: FLSNDTVQL

T7: CD22 peptide on HLA-A*02:08 (human)
T7 peptide: FLSNDTVQL


Key:
[1] = target: CD22 peptide … (SEQ ID NO: 1) in the context of HLA-A*02:01 (human); assay: cell-based or functional assay
[2] = target: T1, CD22 peptide on HLA-A*02:01; assay: killing
[3] = target: T2, CD22 peptide on HLA-A*02:04; assay: cytokine release
[4] = target: T3, CD22 peptide on HLA-A*02:05; assay: cytokine release
[5] = target: T4, CD22 peptide on HLA-A*02:07; assay: cytokine release
[6] = target: T5, CD22 peptide on HLA-A*02:10; assay: cytokine release
[7] = target: T6, CD22 peptide on HLA-A*02:02; assay: cytokine release
[8] = target: T7, CD22 peptide on HLA-A*02:08; assay: cytokine release
[9] = target: T1, CD22 peptide on HLA-A*02:01; assay: cytokine release

| Kd value by peptide titration on T2 cells (50% of maximal IFNγ release, ELISA) [1] | binding result [3] | binding result [4] | binding result [5] | binding result [6] | binding result [7] | binding result [8] | binding result [9] | Binder | binding result [2] |
| --- | --- | --- | --- | --- | --- | --- | --- | --- | --- |
| 1.1e-08 | recognises | recognises | recognises | recognises | no recognition | no recognition | – | CD22 TCR (TCR, V domains shown) Valpha: EDKVVQSPLSLVVHEGDTVTLNCSYEVTNFRSLLWYKQEKKAPTFLFMLTSSGIEKKSGRLSSILDKKELFSILNITATQTGDSAVYLCAVDNQGGKLIFGQGTELSVKP Vbeta: GAVVSQHPSWVICKSGTSVKIECRSLDFQATTMFWYRQFPKQSLMLMATSNEGSKATYEQGVEKDKFLINHASLTLSTLTVTSAHPEDSSFYICSARPSGVYNEQFFGPGTRLTVL | recognises |
| 2.2e-08 | – | – | – | – | – | – | recognises | CD22 TCR 3225 (TCR, V domains shown) Valpha: EDKVVQSPLSLVVHEGDTVTLNCSYEVTNFRSLLWYKQEKKAPTFLFMLTSSGIEKKSGRLSSILDKKELFSILNITATQTGDSAVYLCAVDNQGGKLIFGQGTELSVKP Vbeta: GAVVSQHPSWVICKSGTSVKIECRSLDFQATTMFWYRQFPKQSLMLMATSNEGSKATYEQGVEKDKFLINHASLTLSTLTVTSAHPEDSSFYICSAREAGVYNEQFFGPGTRLTVL | – |
